What was measured:
[1] = biological target: Zika virus (Asian strain, accession number KF993678) (Zika virus); assay: cell-based or functional assay
human FcγRIIIb (NA2) = biological target: T1, human FcγRIIIb (NA2) (human, UniProt O75015 17-200); assay: SPR (Biacore T200, pH 7.4): His-tagged FcγR captured, antibody alone or 1:1 immune complex with trimeric CD154 injected at 100 nM; response divided by capture level [h]
T1 construct: also called human FcγR3b allelic variant NA2
T1 chain: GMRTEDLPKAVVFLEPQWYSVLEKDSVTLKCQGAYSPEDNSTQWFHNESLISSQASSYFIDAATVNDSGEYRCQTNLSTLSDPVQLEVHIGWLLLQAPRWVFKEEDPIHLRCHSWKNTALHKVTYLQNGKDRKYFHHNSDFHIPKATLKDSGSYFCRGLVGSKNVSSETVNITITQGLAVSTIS

mouse FcγRI = biological target: T2, mouse FcγRI (mouse, UniProt P26151 25-297); assay: SPR (Biacore T200, pH 7.4): His-tagged FcγR captured, antibody alone or 1:1 immune complex with trimeric CD154 injected at 100 nM; response divided by capture level [a]
T2 construct: also called mFcγRI; mouse FcγR1
T2 sequence: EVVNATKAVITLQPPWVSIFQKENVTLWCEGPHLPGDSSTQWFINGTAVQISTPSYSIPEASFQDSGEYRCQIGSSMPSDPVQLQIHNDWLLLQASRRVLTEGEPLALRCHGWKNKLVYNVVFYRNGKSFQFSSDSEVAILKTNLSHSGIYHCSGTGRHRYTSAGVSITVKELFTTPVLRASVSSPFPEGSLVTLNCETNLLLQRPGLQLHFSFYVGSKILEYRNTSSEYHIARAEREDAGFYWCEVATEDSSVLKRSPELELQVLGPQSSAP

mouse FcγRIII = biological target: T3, mouse FcγRIII (mouse, UniProt P08508 31-215); assay: SPR (Biacore T200, pH 7.4): His-tagged FcγR captured, antibody alone or 1:1 immune complex with trimeric CD154 injected at 100 nM; response divided by capture level [c]
T3 construct: also called mFcγRIII; mouse FcγR3
T3 chain: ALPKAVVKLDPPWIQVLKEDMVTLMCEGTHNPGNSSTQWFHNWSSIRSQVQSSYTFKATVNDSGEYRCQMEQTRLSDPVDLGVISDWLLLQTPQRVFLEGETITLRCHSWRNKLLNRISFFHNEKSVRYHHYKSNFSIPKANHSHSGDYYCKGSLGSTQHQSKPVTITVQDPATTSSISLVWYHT

human FcγRIIa (167R) = biological target: T4, human FcγRIIa (167R) (human, UniProt P12318 36-217); assay: as above
T4 construct: also called human FcγR2a allelic variant 167R
T4 chain: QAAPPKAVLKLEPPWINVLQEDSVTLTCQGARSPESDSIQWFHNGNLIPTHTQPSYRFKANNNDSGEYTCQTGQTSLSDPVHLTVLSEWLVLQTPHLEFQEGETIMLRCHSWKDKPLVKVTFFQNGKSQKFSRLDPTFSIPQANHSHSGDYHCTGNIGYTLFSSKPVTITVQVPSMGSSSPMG

human FcγRIIb = biological target: T5, human FcγRIIb (human, UniProt P31994 43-217); assay: SPR (Biacore T200, pH 7.4): His-tagged FcγR captured, antibody alone or 1:1 immune complex with trimeric CD154 injected at 100 nM; response divided by capture level [d]
T5 construct: also called human FcγR2b
T5 sequence: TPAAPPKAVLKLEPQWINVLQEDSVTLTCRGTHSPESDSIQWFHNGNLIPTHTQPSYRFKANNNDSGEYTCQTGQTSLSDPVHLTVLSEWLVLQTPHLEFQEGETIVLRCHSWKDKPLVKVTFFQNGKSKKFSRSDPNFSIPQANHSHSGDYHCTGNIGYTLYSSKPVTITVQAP

mouse FcγRIV = biological target: T6, mouse FcγRIV (mouse, UniProt A0A0B4J1G0 21-203); assay: as above
T6 construct: also called mFcγRIV; mouse FcγR4
T6 sequence: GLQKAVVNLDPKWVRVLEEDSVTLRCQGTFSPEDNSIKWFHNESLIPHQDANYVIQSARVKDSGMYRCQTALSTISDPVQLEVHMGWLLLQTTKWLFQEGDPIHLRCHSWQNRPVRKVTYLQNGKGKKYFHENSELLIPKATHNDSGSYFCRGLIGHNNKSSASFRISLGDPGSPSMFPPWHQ

human FcγRIIIb (NA1) = biological target: T7, human FcγRIIIb (NA1) (human, UniProt O75015 17-200); assay: SPR (Biacore T200, pH 7.4): His-tagged FcγR captured, antibody alone or 1:1 immune complex with trimeric CD154 injected at 100 nM; response divided by capture level [g]
T7 construct: also called human FcγR3b allelic variant NA1
T7 chain: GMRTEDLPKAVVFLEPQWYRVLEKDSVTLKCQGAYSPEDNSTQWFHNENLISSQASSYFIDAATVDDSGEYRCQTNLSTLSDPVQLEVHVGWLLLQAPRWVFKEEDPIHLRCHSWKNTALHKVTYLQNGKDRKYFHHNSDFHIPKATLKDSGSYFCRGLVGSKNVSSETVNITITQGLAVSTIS

[2] = biological target: T8, Recombinant soluble E protein (0.8E-His) from DENV-3 (DENV-3, UniProt P27915 281-673)
[3] = biological target: T8, Recombinant soluble E protein …; assay: SPR Biacore T200

B1: DG_3CH1047-SG1106/3CL-SK1 (antibody)
heavy: QVQLVQSGPDVEKPGASVKVSCKASGYTFTSYYMHWVRQAPGQGLEWMGVINPRGGSRRSAQKFQGRITMTRDTSTSTVYMELSSLRSEDTAVYYCARGGEALFYDSYTTPFDGGSWWFDPWGQGSLVTVSSASTKGPSVFPLAPSSKSTSGGTAALGCLVKDYFPEPVTVSWNSGALTSGVHTFPAVLQSSGLYSLSSVVTVPSSSLGTQTYICNVNHKPSNTKVDKRVEPKSCDKTHTCPPCPAPEAAGGPSVFLFPPKPKDTLMISRTPEVTCVVVDVSHEDPEVKFNWYVDGVEVHNAKTKPREEQYNSTYRVVSVLTVLHQDWLNGKEYKCKVSNAALPAPISKTISKAKGQPREPQVYTLPPSREEMTKNQVSLTCLVKGFYPSDIAVEWESNGQPENNYKTTPPVLDSDGSFFLYSKLTVDKSRWQQGNVFSCSVLHEALHAHYTRKELSLSP
light: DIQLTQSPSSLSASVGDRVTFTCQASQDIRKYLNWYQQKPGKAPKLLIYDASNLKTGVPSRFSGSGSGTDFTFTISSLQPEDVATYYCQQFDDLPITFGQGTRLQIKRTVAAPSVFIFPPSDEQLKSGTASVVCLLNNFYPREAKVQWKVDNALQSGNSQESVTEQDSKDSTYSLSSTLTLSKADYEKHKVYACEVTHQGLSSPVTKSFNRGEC
[1]
  EC50 (µg/mL), FRNT neutralization, Average: 0.63 µg/mL
  EC50 (µg/mL), FRNT neutralization, Expt 1: 0.33 µg/mL
  EC50 (µg/mL), FRNT neutralization, Expt 2: 0.93 µg/mL

B2: Anti-CD154 antibody with Fc variant LALA + KAES (SG1095) (antibody, human IgG1, kappa, L234A L235A)
heavy: EVQLVESGGGSVKPGGSLKLSCAASGFTFSDHYMYWVRQTPEKRLEWVAIISGGGSYTSYPDSMKGRFTISRDNAKNILHLQMSSLKSEDTAMYYCTRESNGKPGFAYWGQGTLVTVSAASTKGPSVFPLAPSSKSTSGGTAALGCLVKDYFPEPVTVSWNSGALTSGVHTFPAVLQSSGLYSLSSVVTVPSSSLGTQTYICNVNHKPSNTKVDKRVEPKSCDKTHTCPPCPAPEAAGGPSVFLFPPKPKDTLMISRTPEVTCVVVDVSHEDPEVKFNWYVDGVEVHNAKTKPREEQYNSTYRVVSVLTVLHQDWLNGKEYKCKVSNAALPAPISKTISKAKGQPREPQVYTLPPSREEMTKNQVSLTCLVKGFYPSDIAVEWESNGQPENNYKTTPPVLDSDGSFFLYSKLTVDKSRWQQGNVFSCSVMHEALHNHYTQKSLSLSP
light: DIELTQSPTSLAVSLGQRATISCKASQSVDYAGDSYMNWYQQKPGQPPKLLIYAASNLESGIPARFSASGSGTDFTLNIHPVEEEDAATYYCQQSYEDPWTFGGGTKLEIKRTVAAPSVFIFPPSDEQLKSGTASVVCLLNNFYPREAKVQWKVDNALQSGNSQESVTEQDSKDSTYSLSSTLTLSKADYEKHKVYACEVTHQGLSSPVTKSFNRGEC
Human FcγRIIIb (NA2)
  binding result: no binding (tested: 100 nM)
Mouse FcγRI
  binding result: no binding (tested: 100 nM)
Mouse FcγRIII
  binding result: no binding (tested: 100 nM)
Human FcγRIIa (167R)
  binding result: no binding (tested: 100 nM)
Human FcγRIIb
  binding result: no binding (tested: 100 nM)
Mouse FcγRIV
  binding result: no binding (tested: 100 nM)
Human FcγRIIIb (NA1)
  binding result: no binding (tested: 100 nM)

B3: Anti-CD154 antibody with Fc variant LALA + KWES (SG1088) (antibody, human IgG1, kappa, L234A L235A)
heavy: EVQLVESGGGSVKPGGSLKLSCAASGFTFSDHYMYWVRQTPEKRLEWVAIISGGGSYTSYPDSMKGRFTISRDNAKNILHLQMSSLKSEDTAMYYCTRESNGKPGFAYWGQGTLVTVSAASTKGPSVFPLAPSSKSTSGGTAALGCLVKDYFPEPVTVSWNSGALTSGVHTFPAVLQSSGLYSLSSVVTVPSSSLGTQTYICNVNHKPSNTKVDKRVEPKSCDKTHTCPPCPAPEAAGGPSVFLFPPKPKDTLMISRTPEVTCVVVDVSHEDPEVKFNWYVDGVEVHNAKTKPREEQYNSTYRVVSVLTVLHQDWLNGKEYKCKVSNWALPAPISKTISKAKGQPREPQVYTLPPSREEMTKNQVSLTCLVKGFYPSDIAVEWESNGQPENNYKTTPPVLDSDGSFFLYSKLTVDKSRWQQGNVFSCSVMHEALHNHYTQKSLSLSP
light: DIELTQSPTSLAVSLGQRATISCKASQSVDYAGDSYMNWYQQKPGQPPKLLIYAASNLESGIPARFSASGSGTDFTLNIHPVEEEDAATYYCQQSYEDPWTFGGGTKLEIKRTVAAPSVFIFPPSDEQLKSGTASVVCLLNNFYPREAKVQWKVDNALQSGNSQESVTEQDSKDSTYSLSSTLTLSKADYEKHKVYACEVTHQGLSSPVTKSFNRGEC
Human FcγRIIIb (NA2)
  binding result: no binding (tested: 100 nM)
Human FcγRIIb
  binding result: no binding (tested: 100 nM)
Mouse FcγRIV
  binding result: no binding (tested: 100 nM)
Human FcγRIIIb (NA1)
  binding result: no binding (tested: 100 nM)

B4: DG_3CH-SG182/3CL-SK1 (antibody, V domains shown)
VH: QVQLVQSGPDVEKPGASVKVSCKASGYTFTSNYIHWVRQAPGQGLEWMGVINPRGGSTASAQKFQGRITMTRDTSTSTVYMELSSLRSDDTAVYYCARGGRALFYDSYTTPRDGGSWWFDPWGQGSLVTVSS
VL: DIQLTQSPSSLSASVGDRVTFTCQASQDIRKYLNWYQQKPGKAPKLLIYDASNLKTGVPSRFSGSGSGTDFTFTISSLQPEDVATYYCQQFDDLPITFGQGTRLQIKR
[2]
  Kd: 6.35 nM

B5: DG_3CH953-SG182/3CL499-SK1 (antibody, human IgG1, kappa, V domains shown)
VH: QVQLVQSGPDVEKPGASVKVSCKASGYTFTSNYIHWVRQAPGQGLEWMGVINPRGGSRRSAQKFQGRITMTRDTSTSTVYMELSSLRSEDTAVYYCARGGRALFYDSYTTPFDGGSWWFDPWGQGSLVTVSS
VL: DIQLTQSPSSLSASVGDRVTFTCQASQDIRKYLNWYQQKPGKAPKLLIYDASNLKFGVPSRFSGSGSGTDFTFTISSLQPEDVATYYCQQFDALPITFGQGTRLQIKR
[3]
  binding result: binds

B6: DG_3CH987-SG182/3CL-SK1 (antibody, V domains shown)
VH: QVQLVQSGPDVEKPGASVKVSCKASGYTFTSYYIHWVRQAPGQGLEWMGVINPRGGSRRSAQKFQGRITMTRDTSTSTVYMELSSLRSEDTAVYYCARGGRALFYDSYTTPFDGGSWWFDPWGQGSLVTVSS
VL: DIQLTQSPSSLSASVGDRVTFTCQASQDIRKYLNWYQQKPGKAPKLLIYDASNLKTGVPSRFSGSGSGTDFTFTISSLQPEDVATYYCQQFDDLPITFGQGTRLQIKR
[2]
  Kd: 0.000988 nM

Reference: patent US20240190948A1 (Chugai, published 2024)
